T1: 小鼠LAG-3-his (in-house, mouse LAG-3 Uniprot #Q61790, Gly24-Leu442) (mouse, UniProt Q61790 24-442)
T1 construct: range 24-442; also called 鼠LAG-3蛋白; not shown: his tag
T1 sequence (looked up): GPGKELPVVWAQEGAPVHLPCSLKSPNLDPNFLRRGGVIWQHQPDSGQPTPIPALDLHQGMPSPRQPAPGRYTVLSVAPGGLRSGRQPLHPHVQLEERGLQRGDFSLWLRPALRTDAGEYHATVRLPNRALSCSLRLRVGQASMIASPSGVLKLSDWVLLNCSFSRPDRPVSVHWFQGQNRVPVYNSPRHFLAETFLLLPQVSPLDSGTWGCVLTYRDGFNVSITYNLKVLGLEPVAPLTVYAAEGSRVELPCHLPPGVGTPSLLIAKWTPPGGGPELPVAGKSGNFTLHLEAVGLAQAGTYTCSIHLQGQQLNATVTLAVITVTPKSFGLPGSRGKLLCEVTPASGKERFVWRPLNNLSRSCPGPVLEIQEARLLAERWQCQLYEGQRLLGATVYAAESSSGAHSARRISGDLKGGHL

T2: 生物素标记的人LAG-3蛋白 (LAG-3-Fc-bio, cat#LA3-H82Fb, Acro) (human, UniProt P18627 23-450, biotin label (site not stated))
T2 construct: Bought protein (Acro LA3-H82Fb); also called 人LAG-3-Fc-bio; not shown: Fc part of the bought fusion
T2 sequence (looked up): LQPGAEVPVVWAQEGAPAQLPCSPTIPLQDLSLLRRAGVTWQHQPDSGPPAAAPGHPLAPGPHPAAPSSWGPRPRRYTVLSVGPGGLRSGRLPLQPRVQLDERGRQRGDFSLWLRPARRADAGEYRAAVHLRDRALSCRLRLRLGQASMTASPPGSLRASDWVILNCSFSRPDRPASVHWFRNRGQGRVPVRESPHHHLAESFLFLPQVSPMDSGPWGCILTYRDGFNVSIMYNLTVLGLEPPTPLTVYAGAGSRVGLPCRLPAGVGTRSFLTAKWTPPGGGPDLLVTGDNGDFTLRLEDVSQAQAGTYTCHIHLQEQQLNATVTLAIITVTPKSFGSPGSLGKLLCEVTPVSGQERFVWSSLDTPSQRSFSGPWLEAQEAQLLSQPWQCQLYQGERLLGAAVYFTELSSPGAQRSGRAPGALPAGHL

T3: 人LAG-3 on the surface of a stable 293T cell line overexpressing it (human, UniProt P18627 23-525)
T3 construct: whole, on cells; also called 表面过表达人LAG-3的293T细胞
T3 sequence (looked up): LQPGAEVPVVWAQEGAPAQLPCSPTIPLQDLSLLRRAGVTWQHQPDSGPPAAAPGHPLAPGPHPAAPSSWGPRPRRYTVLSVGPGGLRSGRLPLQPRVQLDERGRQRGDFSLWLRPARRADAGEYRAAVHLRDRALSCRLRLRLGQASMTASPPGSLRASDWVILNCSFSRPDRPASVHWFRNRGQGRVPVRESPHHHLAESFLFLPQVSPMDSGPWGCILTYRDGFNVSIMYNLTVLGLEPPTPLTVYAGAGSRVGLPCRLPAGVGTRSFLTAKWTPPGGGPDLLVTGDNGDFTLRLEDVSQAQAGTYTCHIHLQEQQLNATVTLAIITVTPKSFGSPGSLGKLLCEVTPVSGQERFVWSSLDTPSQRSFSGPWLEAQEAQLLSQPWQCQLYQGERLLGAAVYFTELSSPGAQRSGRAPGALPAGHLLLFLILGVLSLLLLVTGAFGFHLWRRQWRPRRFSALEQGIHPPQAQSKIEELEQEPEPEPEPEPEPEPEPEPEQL


How the values were obtained:
[1] = molecular target: T1, 小鼠LAG-3-his (in-house, mouse LAG-3 …); assay: indirect ELISA, coated mouse LAG-3-his
[2] = molecular target: T2, 生物素标记的人LAG-3蛋白 (LAG-3-Fc-bio, …); assay: capture ELISA: antibody captured on GAM-Fab/GAH-Fab, LAG-3-Fc-bio in solution, SA-HRP
[3] = molecular target: T3, 人LAG-3 on the surface of a stable 293T …; assay: flow cytometry on 293T cells overexpressing human LAG-3

| binding result [2] | binding result [3] | Binder | binding result [1] |
| --- | --- | --- | --- |
| binds | binds | 抗人LAG-3抗体G1A7 (mouse anti-human LAG-3 monoclonal antibody G1A7) (antibody, V domains shown, Tested as the mouse monoclonal antibody purified from hybridoma culture; also called 本发明的抗体G1A7) VH: EVQLQQSGPVLVKPGASVKMSCKASGYTFTHYYMNWVKQSHGKSLEWIGVINPYNGDTSYKQNFKGKATLTVDKTSSTAYMDLNSLTSEDSAVYYCARDDGYYQWYFDVWGTGTTVTVSS VL: DIQLTQSPSSLSASLGERVSLTCRASQDIGSRLIWLQQGPDGTIKRLIFATSSLDSGVPKRFSGSRSGSDYSLTISSLESEDFVDYYCLQCASSPPTFGGGTKLEIK | no binding (tested: from 66.7nM, serial 5-fold dilution) |
|  |  | Relatlimab (BRISTOL-MYERS SQUIBB COMPANY, BMS), reference antibody, prepared in-house (antibody, human IgG4 S228P, kappa, V domains shown, also called 参照抗体; 参照抗体Relatlimab) VH: QVQLQQWGAGLLKPSETLSLTCAVYGGSFSDYYWNWIRQPPGKGLEWIGEINHRGSTNSNPSLKSRVTLSLDTSKNQFSLKLRSVTAADTAVYYCAFGYSDYEYNWFDPWGQGTLVTVSS VL: EIVLTQSPATLSLSPGERATLSCRASQSISSYLAWYQQKPGQAPRLLIYDASNRATGIPARFSGSGSGTDFTLTISSLEPEDFAVYYCQQRSNWPLTFGQGTNLEIKR | no binding (tested: from 66.7nM, serial 5-fold dilution) |
